Reference: patent publication US20230391859A1 (Novo Nordisk, published 2023)

Key:
[1] = biological target: T1, monomeric TTR (UniProt P02766 21-147); assay: BIACORE (SPR); off-rate from monomers
[2] = biological target: T1, monomeric TTR; assay: BIACORE (SPR); monomeric TTR (affinity)
[3] = biological target: T2, aggregated TTR (UniProt P02766 21-147); assay: BIACORE (SPR); off-rate from amyloid (aggregated TTR)
[4] = biological target: T2, aggregated TTR; assay: BIACORE (SPR), apparent affinity with avidity; same value in mass units; same KD in mass units
[5] = biological target: T2, aggregated TTR; assay: BIACORE (SPR), apparent affinity with avidity; aggregated TTR; apparent affinity (affinity+avidity)

koff [1]: 0.0037 s⁻¹
Kd [2]: 134 nM
koff [3]: 0.0002 s⁻¹
Kd [4]: 0.48 µg/mL
Kd [5]: 3.2 nM
B1: PRX004 (antibody, human IgG1, kappa, V domains shown)
VH: EVQLVESGGGLVQPGGSLKLSCAASGFTFSSYTMSWVRQTPEKRLELVAEINNSGDTTYYPDTVKGRFTISRDNAKNTLYLQMSSLKSEDTAMYYCARHYYYGGGYGGWFFDVWGQGTLVTVSS
VL: DIVMTQSPLSLPVTPGEPASISCRSSKSLLHSNGNTYLYWFLQKPGQSPQLLIYRVSNLASGVPSRFSGSGSGTDFTLKISRVEAEDVGVYYCMQHLEYPLTFGQGTKLEIKR
notes: Humanized IgG1 kappa monoclonal antibody; also called humanized immunoglobulin (Ig) G1 kappa mAb
